Reference: patent US20210071114

Experiments:
[1] = molecular target: keratin solution obtained from human heel corneum
[2] = molecular target: T1, keratin 10
T1 chain: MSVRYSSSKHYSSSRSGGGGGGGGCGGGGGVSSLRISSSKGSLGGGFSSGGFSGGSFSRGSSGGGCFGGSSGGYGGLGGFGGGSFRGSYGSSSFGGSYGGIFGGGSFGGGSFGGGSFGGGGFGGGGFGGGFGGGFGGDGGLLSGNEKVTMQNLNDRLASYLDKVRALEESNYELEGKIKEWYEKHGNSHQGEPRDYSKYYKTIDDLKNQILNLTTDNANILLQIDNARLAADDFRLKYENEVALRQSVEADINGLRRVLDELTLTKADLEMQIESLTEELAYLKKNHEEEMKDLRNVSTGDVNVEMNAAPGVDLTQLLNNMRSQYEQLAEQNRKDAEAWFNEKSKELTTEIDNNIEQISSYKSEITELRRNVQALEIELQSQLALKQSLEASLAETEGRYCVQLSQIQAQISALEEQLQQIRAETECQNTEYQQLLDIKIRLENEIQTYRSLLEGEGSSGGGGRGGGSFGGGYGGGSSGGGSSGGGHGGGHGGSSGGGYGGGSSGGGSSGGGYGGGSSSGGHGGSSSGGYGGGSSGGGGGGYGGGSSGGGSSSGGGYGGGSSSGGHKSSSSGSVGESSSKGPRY

[3] = molecular target: corneocyte-derived insoluble keratin (insoluble corneum fraction from the human neck)
[4] = molecular target: T2, FRET substrate GGGFG
T2 chain: GGGFG

[5] = molecular target: T3, FRET substrate GGGLG
T3 chain: GGGLG

[6] = molecular target: T4, FRET substrate GGGSG
T4 chain: GGGSG

[7] = molecular target: keratin azure, which uses wool as a raw material (K8500)
[8] = molecular target: T5, FRET substrate GGGYG
T5 chain: GGGYG

[9] = molecular target: T6, FRET-GGGGG (FRET substrate having pentaglycine between Nma and Lys(Dnp))
T6 chain: GGGGG

[10] = molecular target: T7, recombinant loricrin fused with a tag sequence (Recombinant Human Loricrin Protein; Abcam, ab114261)
T7 chain: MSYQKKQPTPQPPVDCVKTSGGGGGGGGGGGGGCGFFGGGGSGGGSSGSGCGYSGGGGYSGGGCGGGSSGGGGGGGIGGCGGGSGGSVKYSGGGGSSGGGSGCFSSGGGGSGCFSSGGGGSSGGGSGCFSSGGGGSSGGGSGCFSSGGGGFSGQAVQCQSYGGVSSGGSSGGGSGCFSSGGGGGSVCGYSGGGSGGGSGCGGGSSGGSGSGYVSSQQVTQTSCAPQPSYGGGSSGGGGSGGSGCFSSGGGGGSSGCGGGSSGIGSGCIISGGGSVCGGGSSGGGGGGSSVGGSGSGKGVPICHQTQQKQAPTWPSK

B1: Las A protein (LasA or LAS) (protein)
chain: APPSNLMQLPWRQGYSWQPNGAHSNTGSGYPYSSFDASYDWPRWGSATYSVVAAHAGTVRVLSRCQVRVTHPSGWATNYYHMDQIQVSNGQQVSADTKLGVYAGNINTALCEGGSSTGPHLHFSLLYNGAFVSLQGASFGPYRINVGTSNYDNDCRRYYFYNQSAGTTHCAFRPLYNPGLAL
With B1 the “Enzymatic degradation of keratin, SDS-PAGE (CBB staining)” value (“Enzymatic degradation of keratin” for short) [1] was “bands were detected between the molecular weight marker of 37,000 and the molecular weight marker of 50,000”, the “Cleavage of keratin 10, concluded from SDS-PAGE bands and the mass spectrometry of the BLP sample” value [2] was “BLP and other M23A subfamily enzymes cleaved the glycine-rich regions at both ends of the amino acid sequence of keratin 10” and the “Degradation of corneocyte-derived insoluble keratin, SDS-PAGE (ruby staining) of the supernatant” value (shortened to “Degradation … of the supernatant”) [3] was “A band was detected between the molecular weight marker of 37,000 and the molecular weight marker of 50,000 for all the solutions containing BLP, LasA, and AhP”. The Specific activity (U/mg) [4] was 19 U/mg, the Specific activity (U/mg) [5] was 10 U/mg and the Specific activity (U/mg) [6] was 19 U/mg. For the same protein, the “ΔA595 of the supernatant (property of degrading wool keratin)” value (from here on “ΔA595 of the supernatant”) [7] was “The absorbance of the samples containing Savinase (registered trade name), Alcalase (registered trade name), or proteinase K was increased compared with that of the samples containing BLP, LasA, or AhP”, the Specific activity (U/mg) [8] was 29 U/mg and the Specific activity (U/mg) [9] was 19 U/mg.

B2: Aeromonas hydrophila proteinase (AhP) (protein)
chain: AGGQFQLPWRQGYSWKANGAHSHTGSGYPYSSIDVSYDWPGWGGATYTVTAANSGTVTVFSRCQVRVTATNGWATNYYHMSGISVRSGDYVAADTPIGTYASNRNEALCEGGSSTGPHLHFSLLYNGVFQSLQGQRLSSYAVNVGASNYDDNCNRFWLYNQRNGQRYCAWQPLYNNGID
In the case of B2, the “Enzymatic degradation of keratin” value [1] is reported as “bands were detected between the molecular weight marker of 37,000 and the molecular weight marker of 50,000”, the “Cleavage of keratin 10, concluded from SDS-PAGE bands and the mass spectrometry of the BLP sample” value [2] is reported as “BLP and other M23A subfamily enzymes cleaved the glycine-rich regions at both ends of the amino acid sequence of keratin 10” and the “Degradation … of the supernatant” value [3] is reported as “A band was detected between the molecular weight marker of 37,000 and the molecular weight marker of 50,000 for all the solutions containing BLP, LasA, and AhP”. For the same protein, the Specific activity (U/mg) [4] was 51 U/mg, the Specific activity (U/mg) [5] was 31 U/mg and the Specific activity (U/mg) [6] was 10 U/mg. The “ΔA595 of the supernatant” value [7] was “The absorbance of the samples containing Savinase (registered trade name), Alcalase (registered trade name), or proteinase K was increased compared with that of the samples containing BLP, LasA, or AhP”, the Specific activity (U/mg) [8] was 98 U/mg and the Specific activity (U/mg) [9] was 53 U/mg.

B3: ALE-1 glycylglycine endopeptidase (ALE-1) (protein)
chain: STKVDAPKVEQEAPAKADAPKVEQEAPAKADAPKVEQEAPAKVDAPKVEQEAPAKVDAPKVEQEAPAKADAPKVEQKRTFVREAAQSNHSASWLNNYKKGYGYGPYPLGINGGNHYGVDFFMNVGTPVRAISDGKIVEAGWTNYGGGNEIGLVENDGVHRQWYMHLSKFNVKVGDRVKAGQIIGWSGSTGYSTAPHLHFQRMTNSFSNNTAQDPMPFLKSAGYGSNSTSSSNNNGYKTNKYGTLYKSESASFTANTDIITRLTGPFRSMPQSGVLRKGLTIKYDEVMKQDGHVWVGYNTNSGKRVYLPVRTWNESTGELGPLWGTIK
For B3, the “Enzymatic degradation of keratin” value [1] was “degradation of keratin was not observed for the solutions containing M23B subfamily enzymes ALE-1 and lysostaphin”, the Specific activity (U/mg) [4] was 0 U/mg and the Specific activity (U/mg) [5] was 0 U/mg. The Specific activity (U/mg) [6] was 0 U/mg, the Specific activity (U/mg) [8] was 0 U/mg and the Specific activity (U/mg) [9] was 3 U/mg.

B4: β-lytic metalloprotease (beta-lytic metallopeptidase; BLP) (protein)
chain: SPNGLLQFPFPRGASWHVGGAHTNTGSGNYPMSSLDMSRGGGWGSNQNGNWVSASAAGSFKRHSSCFAEIVHTGGWSTTYYHLMNIQYNTGANVSMNTAIANPANTQAQALCNGGQSTGPHEHWSLKQNGSFYHLNGTYLSGYRITATGSSYDTNCSRFYLTKNGQNYCYGYYVNPGPN
With B4 the “Enzymatic degradation of keratin” value [1] was “bands were detected between the molecular weight marker of 37,000 and the molecular weight marker of 50,000”, the “Mass spectrometry of the SDS-PAGE band of the enzyme-treated solution” value [2] was “the proteins contained in this band region were fragments of keratin 10” and the “Degradation … of the supernatant” value [3] was “A band was detected between the molecular weight marker of 37,000 and the molecular weight marker of 50,000 for all the solutions containing BLP, LasA, and AhP”. For the same protein, the Specific activity (U/mg) [4] was 83 U/mg, the “Loricrin-degrading activity, SDS-PAGE and N-terminus sequencing of the remaining bands” value [10] was “none of the N-terminus amino acid sequences of the bands were the sequence of loricrin, the bands were inferred to be derived from the tag sequence” and the Specific activity (U/mg) [5] was 3 U/mg. For the same protein, the Specific activity (U/mg) [6] was 231 U/mg, the “ΔA595 of the supernatant” value [7] was “The absorbance of the samples containing Savinase (registered trade name), Alcalase (registered trade name), or proteinase K was increased compared with that of the samples containing BLP, LasA, or AhP” and the Specific activity (U/mg) [8] was 74 U/mg. It also gave a Specific activity (U/mg) [9] of 186 U/mg.

B5: Savinase (registered trade name) (SIGMA, P3111) (protein)
chain: AQSVPWGISRVQAPAAHNRGLTGSGVKVAVLDTGISTHPDLNIRGGASFVPGEPSTQDGNGHGTHVAGTIAALNNSIGVLGVAPSAELYAVKVLGASGSGSVSSIAQGLEWAGNNGMHVANLSLGSPSPSATLEQAVNSATSRGVLVVAASGNSGAGSISYPARYANAMAVGATDQNNNRASFSQYGAGLDIVAPGVNVQSTYPGSTYASLNGTSMATPHVAGAAALVKQKNPSWSNVQIRNHLKNTATSLGSTNLYGSGLVNAEAATR
With B5 the “Enzymatic degradation of keratin” value [1] was “major bands were lost for the solutions containing Savinase (registered trade name), Alcalase (registered trade name), and proteinase K” and the “ΔA595 of the supernatant” value [7] was “The absorbance of the samples containing Savinase (registered trade name), Alcalase (registered trade name), or proteinase K was increased compared with that of the samples containing BLP, LasA, or AhP”.

B6: Alcalase (registered trade name) (SIGMA, P4860) (protein)
chain: AQTVPYGIPLIKADKVQAQGFKGANVKVAVLDTGIQASHPDLNVVGGASFVAGEAYNTDGNGHGTHVAGTVAALDNTTGVLGVAPSVSLYAVKVLNSSGSGSYSGIVSGIEWATTNGMDVINMSLGGASGSTAMKQAVDNAYAKGVVVVAAAGNSGSSGNTNTIGYPAKYDSVIAVGAVDSNSNRASFSSVGAELEVMAPGAGVYSTYPTNTYATLNGTSMASPHVAGAAALILSKHPNLSASQVRNRLSSTATYLGSSFYYGKGLINVEAAAQ
With B6 the “Enzymatic degradation of keratin” value [1] was “major bands were lost for the solutions containing Savinase (registered trade name), Alcalase (registered trade name), and proteinase K” and the “ΔA595 of the supernatant” value [7] was “The absorbance of the samples containing Savinase (registered trade name), Alcalase (registered trade name), or proteinase K was increased compared with that of the samples containing BLP, LasA, or AhP”.

B7: proteinase K (Kanto Chemical Co., Inc., 34076-92) (protein)
chain: AAQTNAPWGLARISSTSPGTSTYYYDESAGQGSCVYVIDTGIEASHPEFEGRAQMVKTYYYSSRDGNGHGTHCAGTVGSRTYGVAKKTQLFGVKVLDDNGSGQYSTIIAGMDFVASDKNNRNCPKGVVASLSLGGGYSSSVNSAAARLQSSGVMVAVAAGNNNADARNYSPASEPSVCTVGASDRYDRRSSFSNYGSVLDIFGPGTSILSTWIGGSTRSISGTSMATPHVAGLAAYLMTLGKTTAASACRYIADTANKGDLSNIPFGTVNLLAYNNYQA
For B7, the “Enzymatic degradation of keratin” value [1] was “major bands were lost for the solutions containing Savinase (registered trade name), Alcalase (registered trade name), and proteinase K” and the “ΔA595 of the supernatant” value [7] was “The absorbance of the samples containing Savinase (registered trade name), Alcalase (registered trade name), or proteinase K was increased compared with that of the samples containing BLP, LasA, or AhP”.
